The experiment deals with Gallus gallus TRPV4 isolated ankyrin repeat domain (residues 135-382) (Gallus gallus, UniProt A0A1D5PXA5 135-382). Nature of the experiment: cross-linking.

The values that follow come from article doi:10.1101/2022.12.21.521430 (bioRxiv, 2022).

Gallus gallus TRPV4 isolated ankyrin repeat domain (residues 135-382), sequence (A0A1D5PXA5 135-382): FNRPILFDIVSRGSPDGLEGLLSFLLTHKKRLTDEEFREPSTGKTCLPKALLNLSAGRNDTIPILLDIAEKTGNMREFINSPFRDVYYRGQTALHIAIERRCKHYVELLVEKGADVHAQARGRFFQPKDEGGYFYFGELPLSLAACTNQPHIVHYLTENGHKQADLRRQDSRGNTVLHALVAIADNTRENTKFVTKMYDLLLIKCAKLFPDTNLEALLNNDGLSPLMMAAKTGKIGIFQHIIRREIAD

B1: Gallus gallus TRPV4 isolated intrinsically disordered region (residues 2-134) (domain or fragment, UniProt A0A1D5PXA5 2-134, looked up)
chain: ADPEDPRDAGDVLGDDSFPLSSLANLFEVEDTPSPAEPSRGPPGAVDGKQNLRMKFHGAFRKGPPKPMELLESTIYESSVVPAPKKAPMDSLFDYGTYRQHPSENKRWRRRVVEKPVAGTKGPAPNPPPILKV
For the molecule B1, the binding result is reported as “binds”.
